From article PMC6716841, “Modification of acetoacetyl-CoA reduction step in Ralstonia eutropha for biosynthesis of poly(3-hydroxybutyrate-co-3-hydroxyhexanoate) from structurally unrelated compounds” (Microbial Cell Factories, 2019)

Substrate: CC(=O)CC(=O)SCCNC(=O)CCNC(=O)[C@H](O)C(C)(C)COP(=O)(O)OP(=O)(O)OC[C@H]1O[C@@H](n2cnc3c(N)ncnc32)[C@H](O)[C@@H]1OP(=O)(O)O
Experiment: purified protein
Assay type: biochemical, Cupriavidus necator
Details: 200 μM NADPH, 1 to 20 μM acetoacetyl-CoA, 100 mM Tris-HCl pH 8.0, 30 °C
[1] = substrate inhibition above 12 μM

Protein | Km [1] | Vmax [1] | kcat [1] | kcat/Km [1] | Km | Vmax | kcat | kcat/Km
PhaB1 (Cupriavidus necator H16) (protein) MTQRIAYVTGGMGGIGTAICQRLAKDGFRVVAGCGPNSPRREKWLEQQKALGFDFIASEGNVADWDSTKTAFDKVKSEVGEVDVLINNAGITRDVVFRKMTRADWDAVIDTNLTSLFNVTKQVIDGMADRGWGRIVNISSVNGQKGQFGQTNYSTAKAGLHGFTMALAQEVATKGVTVNTVSPGYIATDMVKAIRQDVLDKIVATIPVKRLGLPEEIASICAWLSSEESGFSTGADFSLNGGLHMG | 1.99 ± 0.23 µM | 162 µmol/min/mg | 71.2 ± 2.7 s⁻¹ | 3.58e+07 ± 4.4e+06 M⁻¹ s⁻¹ | – | – | – | –
PhaB1 (Cupriavidus necator H16; N142V/Y185F) (protein) MTQRIAYVTGGMGGIGTAICQRLAKDGFRVVAGCGPNSPRREKWLEQQKALGFDFIASEGNVADWDSTKTAFDKVKSEVGEVDVLINNAGITRDVVFRKMTRADWDAVIDTNLTSLFNVTKQVIDGMADRGWGRIVNISSVVGQKGQFGQTNYSTAKAGLHGFTMALAQEVATKGVTVNTVSPGFIATDMVKAIRQDVLDKIVATIPVKRLGLPEEIASICAWLSSEESGFSTGADFSLNGGLHMG | – | – | – | – | 109 ± 38 µM | 53.9 µmol/min/mg | 23.7 ± 3.7 s⁻¹ | 220000 ± 80000 M⁻¹ s⁻¹
PhaB1 (Cupriavidus necator H16; Y185F) (protein) MTQRIAYVTGGMGGIGTAICQRLAKDGFRVVAGCGPNSPRREKWLEQQKALGFDFIASEGNVADWDSTKTAFDKVKSEVGEVDVLINNAGITRDVVFRKMTRADWDAVIDTNLTSLFNVTKQVIDGMADRGWGRIVNISSVNGQKGQFGQTNYSTAKAGLHGFTMALAQEVATKGVTVNTVSPGFIATDMVKAIRQDVLDKIVATIPVKRLGLPEEIASICAWLSSEESGFSTGADFSLNGGLHMG | – | – | – | – | 86.2 ± 20.6 µM | 127 µmol/min/mg | 55.8 ± 7.6 s⁻¹ | 650000 ± 180000 M⁻¹ s⁻¹
PhaB1 (Cupriavidus necator H16; N142V) (protein) MTQRIAYVTGGMGGIGTAICQRLAKDGFRVVAGCGPNSPRREKWLEQQKALGFDFIASEGNVADWDSTKTAFDKVKSEVGEVDVLINNAGITRDVVFRKMTRADWDAVIDTNLTSLFNVTKQVIDGMADRGWGRIVNISSVVGQKGQFGQTNYSTAKAGLHGFTMALAQEVATKGVTVNTVSPGYIATDMVKAIRQDVLDKIVATIPVKRLGLPEEIASICAWLSSEESGFSTGADFSLNGGLHMG | – | – | – | – | 58.5 ± 18.1 µM | 175 µmol/min/mg | 76.7 ± 2.7 s⁻¹ | 1.31e+06 ± 470000 M⁻¹ s⁻¹
